The text below walks through data of US20240189443A1, “PD-L1 AND TLR7 DOUBLE-TARGETING NANOBODY COUPLING DRUG AND USE THEREOF IN ANTI-TUMOR” (SHANGHAI INSTITUTE OF MATERIA MEDICA, CHINESE ACADEMY OF …, priority 2021, published 2024).

For assay [1], the system named is induced high-expression PD-L1 CT26 tumor cell. The assay can be described thus: Combined anti-tumor effect of Nb16 and SZU-101, IFN-γ-induced CT26 subcutaneous tumor model. It counts as in vivo, BALB/c mouse. Particulars: Nb16 10 mg/kg intraperitoneal, SZU-101 3 mg/kg peritumoral. The protocol:
The mouse CT26 tumor cells were recovered and passaged, it was ensured that tumor cells at least have been subjected to 3 generations during tumor-bearing, and mouse IFN-γ with a final concentration of 100 ng/mL was used to induce tumor cells for 24 h before tumor-bearing, so that the cell surface thereof highly expresses PD-L1; the induced high-expression PD-L1 CT26 tumor cell was inoculated subcutaneously into a female BALB/c mouse, wherein the inoculation amount was 1×10^6 cells/one; and randomly grouping mice into four groups (9 per group), i.e., a same-type control group (mFc), a nano-antibody Nb16 group (Nb16), a TLR7 agonist SZU-101 group (SZU-101) and a combined treatment group (NB16/SZU-101), wherein the administration amount of the mFc and the Nb16 was 10 mg/kg, and intraperitoneal administration was performed; and the administration amount of the SZU-101 was 3 mg/kg, and the tumor was administered circumferentially. The administration cycle were Nb16 administered on D1, D5, D9, D12, and D14 and SZU-101 administered on D9-D14 (3A). The body weight of the mouse and the tumor major diameter (L) and the short diameter (W) in the administration cycle were observed and recorded until the anatomical endpoint, and the tumor volume V=(L×W×W)/2 was calculated, a tumor growth curve was drawed, and the tumor inhibition rate was calculated; and the experiment was terminated on the fifteenth day. After performing euthanasia, the animal was dissected, and the subcutaneous tumor was taken out.

For assay [2], the system named is IFN-γ-induced high-expression PD-L1 CT26. The assay can be described thus: IFN-γ-induced high-expression PD-L1 CT26 subcutaneous tumor-bearing model, conjugate vs combined administration. Particulars: Day 14, Nb16 or Nb16-SZU-101 10 mg/kg, SZU-101 0.5 mg/kg, intraperitoneal, 4 doses. Type of assay: in vivo, BALB/c mouse. The protocol: In an IFN-γ-induced high-expression PD-L1 CT26 subcutaneous tumor-bearing BALB/c mouse model, mice were randomly divided into four groups, namely an mFc group, an Nb16 group, an Nb16/SZU-101 combined administration group and an NB16-SZU-101 nanobody conjugate drug group, wherein the administration dosage of the mFc or Nb 16 or Nb16-SZU-101 was 10 mg/kg, the administration mode was intraperitoneal administration, the administration dosage of the SZU-101 was 0.5 mg/kg, and the administration mode was intraperitoneal administration; the drug was administered on Day 2, Day 6, Day 10 and Day 13 for a total of 4 times. Tumor sizes were measured 2-3 times per week, and tumor growth curves were drawn; and anatomical weighing and photographing were performed on mice at Day 14.

Another assay addresses PD-1/PD-L1 (Mus musculus, UniProt Q9EP73). Kind of assay: ELISA PD-1/PD-L1 blocking activity assay of nanobody Nb16. Type of assay: binding. Details: A Mouse PD-L1 (ECD)-pFUSE-hIgG1-Fc vector is constructed; made in house; host or cells: HEK293F (PD-L1-Fc). As to the method:
Coating the plate with mPD-L1-Fc fusion protein at 4° C. overnight, then the plate was sealed with BSA at 37° C. for 2 hours, Nb16 nanobodies of different concentrations and 10 μg/mL mouse PD-1-Fc-Biotin fusion protein were added in each hole., After reacting at room temperature for 1 hour, the plate was washed and antibody SA-HRP was added, and the plate reacted at room temperature for 1 hour. After washing, a color developing solution was added, and an absorption value was read at a wavelength of 450 nm.

The target in another assay is human PD-L1 (Homo sapiens, UniProt Q9NZQ7). Kind of assay: CDR affinity maturation of anti-human PD-L1 nanobodies, affinity compared with original antibody. It counts as binding. The note with it: relative to original antibody h_Nb1 VHH or h_Nb2 VHH. An excerpt: Wherein, the original antibody corresponding to the sequence shown in SEQ ID NO.92-106 is h_Nb1 VHH (SEQ ID NO.21); and the original antibody corresponding to the sequence shown in SEQ ID NO.107 -117 is h_Nb2 VHH (SEQ ID NO.25).
Chain of human PD-L1 (Q9NZQ7 19-290): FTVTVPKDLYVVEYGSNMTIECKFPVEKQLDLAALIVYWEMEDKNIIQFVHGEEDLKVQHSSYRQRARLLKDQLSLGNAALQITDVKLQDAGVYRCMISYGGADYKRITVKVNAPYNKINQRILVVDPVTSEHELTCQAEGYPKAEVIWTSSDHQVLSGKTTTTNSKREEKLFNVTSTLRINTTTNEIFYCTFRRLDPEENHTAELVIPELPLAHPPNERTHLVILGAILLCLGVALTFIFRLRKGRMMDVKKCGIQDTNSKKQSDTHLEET

“And” between values parts separate entries of the source, which are not always exact repeats. Equal values may be shown once.

Chain of PD-1/PD-L1 (Q9EP73 19-239 limits assumed): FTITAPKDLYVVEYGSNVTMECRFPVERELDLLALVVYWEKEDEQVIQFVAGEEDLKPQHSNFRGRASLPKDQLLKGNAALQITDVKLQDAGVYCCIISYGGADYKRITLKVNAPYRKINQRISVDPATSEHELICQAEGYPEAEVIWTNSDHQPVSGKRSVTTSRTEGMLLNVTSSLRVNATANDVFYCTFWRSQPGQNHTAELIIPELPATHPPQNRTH

B1: Nb16: anti-PD-L1 nanobody, VHH sequence SEQ ID NO: 1, expressed as Fc fusion (protein)
chain: QVQLQESGGGSVQAGGSLRLSCAASGYTDRNYWMGWFRQAPGKEREGVAALYTRTGSTYYADSVKGRFTISHDNAKNTLYLQMNSLKPEDTAVYYCAADSNAYGLAPLHHYWGQGTQVTVSS
modifications: left off: a dimerising Fc or GST
In the case of B1, the “Anti-tumor effect” value in assay [1] is given as “significantly inhibit tumor growth”. The Tumor inhibitory rate was 35% in assay [1] (day 15) and 30% in assay [2]. Also, the “Endpoint tumor Weight” value was 0.806 g and 0.505 g and 0.460 g and 0.450 g and 0.250 g and 0.381 g and 0.664 g and 0.361 g and 0.418 g in assay [1] (individual mice, day 15); 0.263 g and 0.591 g and 0.342 g and 0.334 g and 0.494 g and 0.442 g in assay [2] (individual mice). For the same molecule, the “Blocking of PD-1/PD-L1 binding” value with PD-1/PD-L1 was “effectively blocked”.

B2: h_Nb2_G101Y: affinity-matured h_Nb2 VHH, SEQ ID NO: 112 (protein)
VHH: DVQLQESGGGLVQPGGSLRLSCAASGFTFGDRWMYWLRQAPGKGLEWVSSINPAGRSTYYADSVKGRFTISRDNAKNTLYLQMNSLKSEDTAVYYCTKDPGYYQKGQGTQVTVSS
modifications: h_Nb2_G101Y
In the assay with human PD-L1, B2 yielded an Increased relative affinity of 8.4837.
